Patent US20230151091A1 (NEW YORK UNIVERSITY, published 2023)

T1: mouse MuSK (mouse, UniProt Q61006 22-494, limits assumed)
T1 construct: Coated on ELISA plates or on the Biacore chip; also called full length mouse MuSK; mouse MuSK (in house produced in HEK293 cells)
T1 sequence (looked up): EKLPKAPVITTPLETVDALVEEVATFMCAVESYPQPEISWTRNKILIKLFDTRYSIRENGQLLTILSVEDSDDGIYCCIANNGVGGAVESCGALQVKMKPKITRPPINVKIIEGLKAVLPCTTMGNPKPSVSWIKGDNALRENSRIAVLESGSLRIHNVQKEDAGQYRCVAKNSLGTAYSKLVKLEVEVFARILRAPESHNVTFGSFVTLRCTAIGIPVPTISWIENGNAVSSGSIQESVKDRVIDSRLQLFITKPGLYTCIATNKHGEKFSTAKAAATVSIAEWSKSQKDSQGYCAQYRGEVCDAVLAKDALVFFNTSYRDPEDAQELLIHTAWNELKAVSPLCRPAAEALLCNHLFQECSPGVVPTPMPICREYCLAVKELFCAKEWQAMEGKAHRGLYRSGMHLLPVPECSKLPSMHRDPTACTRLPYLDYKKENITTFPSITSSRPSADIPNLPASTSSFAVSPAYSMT

T2: human MuSK (human, UniProt O15146 24-495)
T2 construct: Recombinant protein coated on ELISA plates (R&D Systems cat. 10189-MK) or on the Biacore chip; also called human muscle-specific tyrosine protein kinase; full length human MuSK
T2 sequence: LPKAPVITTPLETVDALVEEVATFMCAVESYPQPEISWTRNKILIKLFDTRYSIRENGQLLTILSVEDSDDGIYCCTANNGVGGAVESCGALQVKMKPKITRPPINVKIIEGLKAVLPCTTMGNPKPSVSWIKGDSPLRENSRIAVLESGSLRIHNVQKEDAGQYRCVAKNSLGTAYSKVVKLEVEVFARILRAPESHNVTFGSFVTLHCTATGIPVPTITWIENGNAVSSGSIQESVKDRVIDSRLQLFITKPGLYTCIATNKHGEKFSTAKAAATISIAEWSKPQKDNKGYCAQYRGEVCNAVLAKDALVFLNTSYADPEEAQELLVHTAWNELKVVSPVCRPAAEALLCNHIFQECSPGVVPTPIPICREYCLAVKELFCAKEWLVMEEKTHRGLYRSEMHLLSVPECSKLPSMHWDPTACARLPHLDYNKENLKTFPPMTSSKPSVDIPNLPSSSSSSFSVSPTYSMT

B1: 30A11 Fab (Fab, V domains shown)
VH: QVQVQESGPGLVKPSQTLSLTCTVSGGSITARYYSWSWIRQPPGKGLEWMGVIAYDGSTYYSPSLKSRTSISRDTSKNQFSLHLSSVTPDDTAVYYCARGSSRVAAAFDSWGQGTQVTVSS
VL: SYELTQSPSVTVALRQTAKITCGGDNIASKNVQWYQQKPGQAPSLVIWADSRRPSGIPVRFSGSNFGNTATLTISGAQAEDEADYYCQVWDSSTNVAVFGGGTHLTVL
notes: Fab format
B2: 16F11 (antibody, V domains shown)
VH: EVQLVESGGGLVQPGGSLSLSCVASGFTFSLYYMNWVRQAPGKGLEWLSVIDTHSIAYYADSVKGRFTISRDNVKNTLYLQLNNLKPEDTALYYCVLGRTALVRWGQGTQVTVSS
VL: DIVMTQSPSSVTASVGEKVTINCKSSQSVVFGSNQKSYLNWYQQRPGQSPRLLIYYASTQESGIPDRFSGSGSTTDFTLTISSVQPEDAAVYYCQQAYSAPTFGSGTRLEIK
notes: human IgG1 with the LALA mutations (L234A, L235A); produced in HEK293 cells

Tests used:
[1] = molecular target: T1, mouse MuSK; experiment: Biacore, Fab
Source text: (§1) For affinity determination, a CMS chip was coated with either human or mouse MuSK (200RU) and a dilution series of the antibodies (mAbs and Fabs) was applied in order to be able to calculate the affinity.

[2] = molecular target: T2, human MuSK; experiment: Biacore, MuSK on chip (200RU), Fab dilution series
Source text: as §1

[3] = molecular target: T1, mouse MuSK; experiment: Biacore, MuSK on chip (200RU), Fab dilution series
Source text: as §1

[4] = molecular target: T2, human MuSK; experiment: ELISA, plate coated with human MuSK at 0.2 µg/ml, dilution series of mAb, goat anti human Fc-HRP and TMB, OD 620 nm (8 min)
Protocol: (§2) An ELISA plate was coated with human MuSK (R&D Systems, cat. 10189-MK) or mouse MuSK (in house produced in HEK293 cells) at 0.2 μg/ml. After washing and blocking the plate, a dilution series of the anti-MuSK antibodies was applied and allowed to bind for 2 hours at room temperature. […] OD at 620 nm was measured with a 96 well ELISA plate reader.

[5] = molecular target: T1, mouse MuSK; experiment: ELISA, plate coated with mouse MuSK at 0.2 µg/ml, dilution series of mAb, goat anti human Fc-HRP and TMB, OD 620 nm (8 min)
Protocol: as §2

Binder | fold difference in affinity, human versus mouse MuSK [1] | Kd [2] | Kd [3] | EC50 (read off the curve) [4] | EC50 (read off the curve) [5]
B1 | ≥ 1000 fold | 0.008 nM | 2.42 nM |  | 
B2 |  |  |  | ~0.02 µg/mL | ~0.02 µg/mL
